Read-outs that look alike come from different tables or passages of the source.
What was measured:
ParB-eGFP (Spo0J) [1] = target: T1, ParB-eGFP (Spo0J) (Bacillus subtilis, UniProt P26497 1-282); test: single-molecule colocalization with lambda DNA
T1 sequence: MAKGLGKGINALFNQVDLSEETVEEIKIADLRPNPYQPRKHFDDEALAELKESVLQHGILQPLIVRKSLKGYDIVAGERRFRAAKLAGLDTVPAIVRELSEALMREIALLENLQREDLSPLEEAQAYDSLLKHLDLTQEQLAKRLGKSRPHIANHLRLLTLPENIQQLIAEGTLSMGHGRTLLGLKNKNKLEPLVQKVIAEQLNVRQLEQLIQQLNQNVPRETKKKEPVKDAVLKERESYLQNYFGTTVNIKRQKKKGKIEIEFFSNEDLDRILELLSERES

ParB-eGFP (Spo0J) [2] = target: T1, ParB-eGFP (Spo0J); test: single-molecule colocalization with lambda DNA; remark: listed apart in the source

B1: ns-oligo-Cy5 (58 bp) (dsDNA)
DNA 1: CGAAGGCTACGTCCAGGAGCGCACCATCTTCTTCAAGGACGACGGCAACTACAAGACC
DNA 2: GGTCTTGTAGTTGCCGTCGTCCTTGAAGAAGATGGTGCGCTCCTGGACGTAGCCTTCG
For B1, which binding signal (ParB-eGFP (Spo0J) [1]) is on record?
The binding signal was ~2 fold shorter lifetime than parS-oligo.

What about the binding signal (ParB-eGFP (Spo0J) [2]) of the same binder?
Its binding signal is ~3 fold fewer multimer-oligo complexes than parS-oligo.

Reference: publication PMC9458438
